Experimental data: patent US8703913B2, “Sensor” (Medical Research Council, priority 2008, dated 2014)
Like-named read-outs stand apart in the source and are kept apart here.

Tests used:
[1] = reported (19); read-out: dissociation constant for ethenoADP; cited from earlier work
[2] = 37° C.; reported (16); cited from earlier work
[3] = reported (19), cited from earlier work
[4] = Stopped-flow kinetics of ADP binding and dissociation; conditions: Table 3; for kon: ADP association, stopped-flow; for kon / koff: 20° C.; for Kd: calculated as koff/kon; for koff: displacement with unlabeled ParM
[5] = Fluorescence titration of labeled ParM with ADP; type: binding; conditions: Table 2, 20° C.; for ADP F+ADP/F−ADP: MDCC-ParM mutants; for Kd: fluorescence titration
Experimental: MDCC fluorescence was excited at 431 nm and detected at 474 nm, for the rhodamine-labeled proteins, excitation and emission wavelengths of 553 nm and 578 nm were used. […] The fraction of ParM bound to ADP was calculated from the fluorescence intensities.
The MDCC fluorescence was excited at 431 nm and emission was recorded at 474 nm. The equilibrium dissociation constants were determined by fitting a quadratic binding curve to the data.
(§1) The equilibrium dissociation constants were determined by fitting a quadratic binding curve to the data and are listed in Table Y. For the plot the experimental fluorescence intensities were normalized to the maximal fluorescence change obtained at saturation with ADP.
(§2) [formula] where [P] and [L] are the total concentrations of protein and ligand, respectively, Kd is the dissociation constant and Fmin and Fmax are the fluorescence intensities of the free and ligand bound protein.
(§3) Fluorescence spectra and titrations were measured in a Cary Eclipse spectrofluorimeter (Varian). Excitation and emission spectra were recorded with 5 nm slit width at emission and excitation wavelength of 576 nm and 553 nm, respectively. In titration experiments rhodamine fluorescence was measured at the same excitation/emission wavelength. Titration data were analyzed with a quadratic binding curve using the program Grafit 5.0 (7).

[6] = Fluorescence titration of labeled ParM with ATP; type: binding; conditions: Table 2; for ATP F+ATP/F−ATP: MDCC-ParM mutants; for ATP F+ATP/F−ATP / Kd: 20° C.; for Kd: highly purified ATP containing only 0.03% ADP
Experimental: The MDCC fluorescence was excited at 431 nm and emission was recorded at 474 nm. The equilibrium dissociation constants were determined by fitting a quadratic binding curve to the data. For the plot the experimental fluorescence intensities were converted to the nucleotide bound fraction of ParM.
as §1
ADP and ATP were purchased from Sigma at the highest purity available. The purity of the nucleotides was analysed by HPLC using a Partisphere SAX column, 125×4.5 mm (Whatman). Nucleotide separation was performed isocratic with 0.3 M (NH4)2HPO4 buffer pH 4.0, 25% MeOH, and the absorbance at 260 nm was monitored.
as §2, §3

kon [4]	Kd [4]	koff [4]	Kd [5]	Kd ratio ATP/ADP [6]	Kd [6]	Molecule	Kd [1]	ATPase activity accelerated by polymerization [2]	ethenoATP bound tighter than ethenoADP [3]	Kd ([3]; read-out: Kd for ethenoATP)	Kd ([3]; read-out: dissociation constant for ethenoATP)	ADP F+ADP/F−ADP [5]	ATP F+ATP/F−ATP [6]
–	–	–	–	–	–	wild-type ParM: prokaryotic actin homologue encoded on Escherichia coli plasmid R1, accession P11904 (protein, listed as Escherichia coli) MLVFIDDGSTNIKLQWQESDGTIKQHISPNSFKREWAVSFGDKKVFNYTLNGEQYSFDPISPDAVVTTNIAWQYSDVNVVAVHHALLTSGLPVSEVDIVCTLPLTEYYDRNNQPNTENIERKKANFRKKITLNGGDTFTIKDVKVMPESIPAGYEVLQELDELDSLLIIDLGGTTLDISQVMGKLSGISKIYGDSSLGVSLVTSAVKDALSLARTKGSSYLADDIIIHRKDNNYLKQRINDENKISIVTEAMNEALRKLEQRVLNTLNEFSGYTHVMVIGGGAELICDAVKKHTQIRDERFFKTNNSQYDLVNGMYLIGN	2400 nM	~3 min⁻¹	60 fold	40 nM	40 nM	–	–
980000 M⁻¹ s⁻¹	220 nM	0.22 s⁻¹	330 nM	324	107000 nM	T174A T175A: MDCC-ParM (His6/I27C/T174A/T175A/C287A) (conjugate, UniProt P11904 1-320, looked up, variant I27C T174A T175A C287A, MDCC label; His6 tag) Plasmid segregation protein …: MLVFIDDGSTNIKLQWQESDGTIKQHCSPNSFKREWAVSFGDKKVFNYTLNGEQYSFDPISPDAVVTTNIAWQYSDVNVVAVHHALLTSGLPVSEVDIVCTLPLTEYYDRNNQPNTENIERKKANFRKKITLNGGDTFTIKDVKVMPESIPAGYEVLQELDELDSLLIIDLGGAALDISQVMGKLSGISKIYGDSSLGVSLVTSAVKDALSLARTKGSSYLADDIIIHRKDNNYLKQRINDENKISIVTEAMNEALRKLEQRVLNTLNEFSGYTHVMVIGGGAELIADAVKKHTQIRDERFFKTNNSQYDLVNGMYLIGN	–	–	–	–	–	3.3	3.2
340000 M⁻¹ s⁻¹	810 nM	0.28 s⁻¹	1570 nM	324	507000 nM	T175L: MDCC-ParM (His6/I27C/T175L/C287A) (conjugate, UniProt P11904 1-320, looked up, variant I27C T175L C287A, MDCC label; His6 tag) Plasmid segregation protein …: MLVFIDDGSTNIKLQWQESDGTIKQHCSPNSFKREWAVSFGDKKVFNYTLNGEQYSFDPISPDAVVTTNIAWQYSDVNVVAVHHALLTSGLPVSEVDIVCTLPLTEYYDRNNQPNTENIERKKANFRKKITLNGGDTFTIKDVKVMPESIPAGYEVLQELDELDSLLIIDLGGTLLDISQVMGKLSGISKIYGDSSLGVSLVTSAVKDALSLARTKGSSYLADDIIIHRKDNNYLKQRINDENKISIVTEAMNEALRKLEQRVLNTLNEFSGYTHVMVIGGGAELIADAVKKHTQIRDERFFKTNNSQYDLVNGMYLIGN	–	–	–	–	–	1.9	2.3
